Data published in US6995019B2, “Fluorescent isothiocyanate (fitc) sinistrin, its production and use” (priority 2000, dated 2006).

What was measured:
[1] = background statement on prior art; cited from earlier work
[2] = background statement on prior art; cited from earlier work; remark: listed apart in the source

Substance	fluorescence (presence of substance) in lung, liver and kidney sections (rat, 30 mg per kg at intervals of 2 days, sacrificed 4 hours after last administration)	effect of deposition in the liver (rat, liver, substance found mainly intracellularly)	effect of deposition in the lung (rat, lung, substance found in the corpuscles)	fluorescence (accumulation) in liver, lung and kidneys (rats sacrificed 6 minutes after the injection, rinsed with saline solution)	solubility in water [1]	blood pressure after injection into an experimental animal [2]
FITC-inulin	considerable fluorescence is observed	irreversible cell damage (cell death)	leads to microstenoses and ultimately to embolism	accumulates in the liver, lung and kidneys	only very slightly soluble in water	transient reduction in blood pressure
inulin	–	–	–	–	only very slightly soluble in water	transient reduction in blood pressure
